The target in one experiment is T1, Y1 receptor (human, UniProt P25929 1-384).
T1 construct: whole, on cells; Assayed as membrane homogenates of SK-N-MC cells, not intact cells; also called NPY Y1
T1 sequence (looked up): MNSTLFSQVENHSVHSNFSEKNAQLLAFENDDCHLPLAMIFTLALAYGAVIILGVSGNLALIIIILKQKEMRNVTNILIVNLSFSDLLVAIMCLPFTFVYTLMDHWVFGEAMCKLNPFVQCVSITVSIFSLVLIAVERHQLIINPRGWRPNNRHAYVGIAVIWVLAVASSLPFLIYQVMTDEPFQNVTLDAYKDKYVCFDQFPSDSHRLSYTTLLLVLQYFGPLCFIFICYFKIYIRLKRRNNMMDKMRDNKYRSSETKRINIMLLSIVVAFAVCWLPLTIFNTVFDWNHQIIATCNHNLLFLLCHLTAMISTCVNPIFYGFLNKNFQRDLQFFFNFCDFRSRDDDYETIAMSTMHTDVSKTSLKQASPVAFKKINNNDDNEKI
Kind of experiment: radioligand competition against [125I-Leu31,Pro34]PYY, SK-N-MC membranes, Cheng-Prusoff. Background: Displacement assays read how much labelled ligand stays bound in the presence of the test substance.

A further experiment deals with T2, Y2 receptor (human, UniProt P49146 1-381).
T2 construct: whole, on cells; Assayed as membrane homogenates of SK-N-BE2 cells, not intact cells
T2 sequence (looked up): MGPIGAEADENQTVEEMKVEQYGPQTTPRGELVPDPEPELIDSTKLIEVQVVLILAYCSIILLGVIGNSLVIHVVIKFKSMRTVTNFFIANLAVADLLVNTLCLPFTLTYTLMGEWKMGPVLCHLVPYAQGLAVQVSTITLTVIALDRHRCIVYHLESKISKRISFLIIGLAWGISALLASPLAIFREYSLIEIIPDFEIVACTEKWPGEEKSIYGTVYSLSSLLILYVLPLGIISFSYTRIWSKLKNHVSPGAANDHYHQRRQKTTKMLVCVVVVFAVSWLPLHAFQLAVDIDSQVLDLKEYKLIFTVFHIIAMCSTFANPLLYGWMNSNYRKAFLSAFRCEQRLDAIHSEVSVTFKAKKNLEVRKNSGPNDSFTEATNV
Kind of experiment: radioligand competition against [125I]PYY(3-36), SK-N-BE2 membranes, Cheng-Prusoff.

In experiment [1] the target is T3, Y1 receptor (human), P25929.
T3 chain: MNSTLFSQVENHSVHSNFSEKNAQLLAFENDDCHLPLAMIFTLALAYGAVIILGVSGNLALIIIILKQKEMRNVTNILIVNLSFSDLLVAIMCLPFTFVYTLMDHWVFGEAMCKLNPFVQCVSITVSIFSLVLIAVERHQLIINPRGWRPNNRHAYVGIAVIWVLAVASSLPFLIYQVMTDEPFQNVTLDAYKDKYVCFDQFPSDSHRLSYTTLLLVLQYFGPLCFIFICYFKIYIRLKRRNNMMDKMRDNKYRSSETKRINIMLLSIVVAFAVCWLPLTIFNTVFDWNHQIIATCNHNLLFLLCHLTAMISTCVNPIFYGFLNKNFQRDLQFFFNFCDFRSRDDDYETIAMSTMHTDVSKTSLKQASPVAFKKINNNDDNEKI

The target in experiment [2] is T4, Y2 receptor (human), P49146.
T4 chain: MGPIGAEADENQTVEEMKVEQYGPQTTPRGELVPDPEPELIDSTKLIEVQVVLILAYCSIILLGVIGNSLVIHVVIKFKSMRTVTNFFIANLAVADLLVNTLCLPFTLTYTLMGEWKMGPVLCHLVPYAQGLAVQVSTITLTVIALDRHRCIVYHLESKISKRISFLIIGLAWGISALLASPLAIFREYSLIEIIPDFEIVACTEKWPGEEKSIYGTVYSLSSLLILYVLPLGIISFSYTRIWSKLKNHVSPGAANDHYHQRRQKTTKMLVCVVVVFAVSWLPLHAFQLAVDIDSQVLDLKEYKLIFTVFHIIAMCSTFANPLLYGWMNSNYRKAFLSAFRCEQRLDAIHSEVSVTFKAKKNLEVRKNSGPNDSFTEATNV

This note sets out measurements from patent US20060211610A1 (IPSEN PHARMA S A S, published 2006).

Non-standard residues stand in square brackets, D forms with d. Phe(3,4,5-F3) = N[C@@H](Cc1cc(F)c(F)c(F)c1)C(=O)O; Ac6c = NC1(C(=O)O)CCCCC1 Where only a bound is given, the exact number is not on record here.

B1: Ac-[A6C^24, Leu^31]hPYY(24-36)NH2 (peptide)
peptide: Ac-[Ac6c]RHYLNLLTRQRY-NH2
SMILES: CC(=O)NC1(C(=O)N[C@@H](CCCNC(=N)N)C(=O)N[C@@H](Cc2c[nH]cn2)C(=O)N[C@@H](Cc2ccc(O)cc2)C(=O)N[C@@H](CC(C)C)C(=O)N[C@@H](CC(N)=O)C(=O)N[C@@H](CC(C)C)C(=O)N[C@@H](CC(C)C)C(=O)N[C@H](C(=O)N[C@@H](CCCNC(=N)N)C(=O)N[C@@H](CCC(N)=O)C(=O)N[C@@H](CCCNC(=N)N)C(=O)N[C@@H](Cc2ccc(O)cc2)C(N)=O)[C@@H](C)O)CCCCC1
notes: Also carries Leu at 31 (residue 8 of the peptide), already in the entry
The Ki is the equilibrium dissociation constant of an inhibitor or competing ligand from its target. Low readings indicate higher affinity, high ones lower affinity. On to B1, for which the figures for the Ki in the experiment with Y1 receptor and with Y2 receptor were less than 2000 nM and less than 1000 nM, respectively.

B2: Ac-[A6C^31]hPYY(24-36)NH2 (peptide)
peptide: Ac-LRHYLNL[Ac6c]TRQRY-NH2
SMILES: CC(=O)N[C@@H](CC(C)C)C(=O)N[C@@H](CCCNC(=N)N)C(=O)N[C@@H](Cc1c[nH]cn1)C(=O)N[C@@H](Cc1ccc(O)cc1)C(=O)N[C@@H](CC(C)C)C(=O)N[C@@H](CC(N)=O)C(=O)N[C@@H](CC(C)C)C(=O)NC1(C(=O)N[C@H](C(=O)N[C@@H](CCCNC(=N)N)C(=O)N[C@@H](CCC(N)=O)C(=O)N[C@@H](CCCNC(=N)N)C(=O)N[C@@H](Cc2ccc(O)cc2)C(N)=O)[C@@H](C)O)CCCCC1
notes: Synthetic analog of human PYY(24-36)
Turning to B2, the Ki in the experiment with Y1 receptor is less than 2000 nM; in the experiment with Y2 receptor, less than 1000 nM.

B3: Ac-[A6C^28, Leu^31]hPYY(24-36)NH2 (peptide)
peptide: Ac-LRHY[Ac6c]NLLTRQRY-NH2
SMILES: CC(=O)N[C@@H](CC(C)C)C(=O)N[C@@H](CCCNC(=N)N)C(=O)N[C@@H](Cc1c[nH]cn1)C(=O)N[C@@H](Cc1ccc(O)cc1)C(=O)NC1(C(=O)N[C@@H](CC(N)=O)C(=O)N[C@@H](CC(C)C)C(=O)N[C@@H](CC(C)C)C(=O)N[C@H](C(=O)N[C@@H](CCCNC(=N)N)C(=O)N[C@@H](CCC(N)=O)C(=O)N[C@@H](CCCNC(=N)N)C(=O)N[C@@H](Cc2ccc(O)cc2)C(N)=O)[C@@H](C)O)CCCCC1
notes: as for B1
Regarding B3, the inhibition constant Ki was less than 2000 nM with Y1 receptor and less than 1000 nM in the experiment with Y2 receptor.

B4: Ac-[(3,4,5-F)Phe^27]hPYY(22-36)NH2 (peptide)
peptide: Ac-ASLRH[Phe(3,4,5-F3)]LNLVTRQRY-NH2
SMILES: CC(=O)N[C@@H](C)C(=O)N[C@@H](CO)C(=O)N[C@@H](CC(C)C)C(=O)N[C@@H](CCCNC(=N)N)C(=O)N[C@@H](Cc1c[nH]cn1)C(=O)N[C@@H](Cc1cc(F)c(F)c(F)c1)C(=O)N[C@@H](CC(C)C)C(=O)N[C@@H](CC(N)=O)C(=O)N[C@@H](CC(C)C)C(=O)N[C@H](C(=O)N[C@H](C(=O)N[C@@H](CCCNC(=N)N)C(=O)N[C@@H](CCC(N)=O)C(=O)N[C@@H](CCCNC(=N)N)C(=O)N[C@@H](Cc1ccc(O)cc1)C(N)=O)[C@@H](C)O)C(C)C
For the molecule B4, the Ki in experiment [1] is less than 2000 nM; in experiment [2] it was less than 1000 nM.
